Reference: article PMC9695803

Target: Human parvovirus B19 major capsid protein VP2 (human parvovirus B19)

“Human parvovirus B19 minor capsid protein VP1 (from UniProt Q9PZT0 1-781) (natural protein)” showed a proportion of VP1 in the VP1/VP2 VLP of 5.11% and a proportion of VP1 in the VP1h/VP2 VLP of 25.4%.
